Side chains are listed from the residue outwards. Ends that are not written are not given here. dC16 = not defined here

The series deals with the molecule itself. The series can be described thus: UV-vis heme titration; reports an intact 4-helix bundle (self-association).

B1: dC16-BB-P2K conjugate 8 (designed binder)
peptide: dC16-GGGEIWKLHEEFLC([maleimide-PEG 2000 Da])KFEELLKLHEERLKKM
modifications: reading uncertain
notes: also called BB-dC16-P2K; H10H24-dC16-PEG2K
In the case of B1, the binding result is listed as “binds”.

These data come from patent US20160009770A1 (LAWRENCE BERKELEY NATIONAL LABORATORY, published 2016).
